Assay results as given in publication PMC6712498.

Target: Gaussia princeps luciferase (Gluc)-LiDps fusion protein (Gaussia princeps | Listeria innocua)
Assay: native gel or EMSA + other: TEM; purified refolded Gluc-LiDps; native gel with HuAFn and LiDps as molecular weight markers, and morphological characterization by TEM

“Gaussia princeps luciferase (Gluc)-LiDps fusion protein” was tested, and the stoichiometry N was 12 subunits.
